For assay [1], the target named is T1, human GLP-1 receptor (Abcam) (human, UniProt P43220 24-145, limits assumed).
T1 construct: Bought recombinant protein
Description: SPR (Proteon XPR36), human GLP-1 receptor immobilised, analyte 0-10 uM, Langmuir fit. On the procedure:
(§1) Binding affinity of each TAs were evaluated by SPR (Proteon XPR36, BIO-RAD) and based on the protocol modified from general procedure of SPR analysis in published paper. Specifically, the proteon GLC chip (BIO-RAD, USA) was stabilized with PBST (PBS+0.01% tween 20, pH 7.4). Stabilized GLC chip was activated with 150 uL of Sulfo-NHS (0.001 M) and EDC (0.04M) (1:1) followed by immobilization of 10 ug/mL human GLP-1 receptor (Abcam, UK) diluted in acetate buffer (pH 5.0). After immobilization level was recorded and deactivation by 1 M Ethanolamine-HCl (pH 8.5), different concentrations of Dulaglutide and GLP-1-gFc (0, 1.25, 2.5, 5, 10 uM) were injected to each channel of chip. Chip was regenerated by 25 mM NaOH and checked ‘Zero base’ before repeated analysis of same molecule or other TA. All binding sesorgrams were collected, processed, and analyzed using the integrated Proteon Manager software (Bio-RAD, USA). Binding curves were fitted using the Laugmuir model.

Assay [2] deals with T1, human GLP-1 receptor (Abcam). Description: SPR (Proteon XPR36), human GLP-1 receptor immobilised. On the procedure: as §1
The target of assay [3] is GLP-1 receptor expressed on the transgenic cell line GLP1R_cAMP/luc. Description: cell-based or functional assay.

B1: GLP-1(A2G)-hyFc9 (Fc fusion)
chain: HGEGTFTSDVSSYLEGQAAKEFIAWLVKGRGAKATTAPATTRNTGRGGEEKKKEKEKEEQEERETKTPECPSHTQPLGVFLFPPKPKDTLMISRTPEVTCVVVDVSQEDPEVQFNWYVDGVEVHNAKTKPREEQFNSTYRVVSVLTVLHQDWLNGKEYKCKVSNKGLPSSIEKTISKAKGQPREPQVYTLPPSQEEMTKNQVSLTCLVKGFYPSDIAVEWESNGQPENNYKTTPPVLDSDGSFFLYSRLTVDKSRWQEGNVFSCSVMHEALHNHYTQKSLSLSLGK
modifications: O-glycosylation at the IgD hinge region (positions not stated)
notes: also called GLP-1-gFc; GLP-1-hyFc9
In general, Kd refers to a measure of binding affinity in units of concentration. Higher therefore signals lower affinity. In turn, B1 yielded a Kd in assay [1] of 16 µM. Besides, in assay [2], the “fold koff against Dulaglutide” value is around 10 fold and the “fold kon against Dulaglutide” value is 1.7 fold. Further, in assay [3], the “EC50, cAMP-dependent luciferase reporter in GLP-1R over-expressing cells” value worked out at 0.0233 nM and the “fold difference of EC50 against Dulaglutide, cAMP-dependent luciferase reporter” value came to 3.5 fold.

For the origin of these results see patent publication US20200282021A1 (GENEXINE, published 2020).
